By Kd is commonly meant the free concentration of one partner at which half of the binding sites on the other are occupied at equilibrium, for simple one-to-one binding. Read a high Kd as a looser complex. In general, koff refers to the first-order rate constant of dissociation. A low value points to a long-lived complex. Usually kon stands for the rate constant with which the complex forms. Lower therefore signals slow association.

Drawing on article PMC3588154, this text covers Kd, koff and kon for two substances.

In this experiment the target is human von Willebrand factor (VWF) (human) (UniProt P04275). In words: SPR. (In SPR one partner is held on a chip, and binding of the other changes the refractive index at the surface.)

As for “recombinant B-domain-deleted FVIII (rBDD FVIII) (from UniProt P00451 1668-2351) (natural protein)”, the Kd worked out at 0.26 nM, the koff stood at 0.00087 s⁻¹ and the kon worked out at 3.4e+06 M⁻¹ s⁻¹.

For the substance “recombinant factor VIII–Fc fusion protein (rFVIIIFc) (from UniProt P00451 1668-2351)”, the Kd is 0.34 nM, the koff amounted to 0.00089 s⁻¹ and the kon is 2.6e+06 M⁻¹ s⁻¹.
